Test results: article PMC5778602
Like-named read-outs stand apart in the source and are kept apart here.

How the values were obtained:
Experiment in all cases: ITC
CstF-64 RRM = target: T1, CstF-64 RRM (Homo sapiens, UniProt P33240 16-94)
T1 sequence: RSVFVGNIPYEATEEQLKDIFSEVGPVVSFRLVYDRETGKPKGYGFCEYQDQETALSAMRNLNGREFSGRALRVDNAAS

[1] = target: T2, CstF-50;CstF-77ΔN;CstF-64RH (Homo sapiens;Homo sapiens;Homo sapiens, UniProt Q05048;Q12996;P33240 1-431;241-717;1-199, |del1-240|)
T2 sequence 1: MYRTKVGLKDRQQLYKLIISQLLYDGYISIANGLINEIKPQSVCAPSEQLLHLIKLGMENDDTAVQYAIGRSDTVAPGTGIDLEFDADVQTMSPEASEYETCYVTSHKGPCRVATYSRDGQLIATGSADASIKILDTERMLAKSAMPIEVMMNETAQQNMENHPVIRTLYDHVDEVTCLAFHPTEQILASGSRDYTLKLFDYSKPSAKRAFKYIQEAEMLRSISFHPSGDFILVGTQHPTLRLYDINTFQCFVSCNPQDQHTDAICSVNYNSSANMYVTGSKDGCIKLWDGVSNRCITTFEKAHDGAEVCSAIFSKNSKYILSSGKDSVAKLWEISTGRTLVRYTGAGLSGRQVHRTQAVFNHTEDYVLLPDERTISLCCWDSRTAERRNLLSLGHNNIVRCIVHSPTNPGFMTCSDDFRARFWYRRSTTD
T2 sequence 2: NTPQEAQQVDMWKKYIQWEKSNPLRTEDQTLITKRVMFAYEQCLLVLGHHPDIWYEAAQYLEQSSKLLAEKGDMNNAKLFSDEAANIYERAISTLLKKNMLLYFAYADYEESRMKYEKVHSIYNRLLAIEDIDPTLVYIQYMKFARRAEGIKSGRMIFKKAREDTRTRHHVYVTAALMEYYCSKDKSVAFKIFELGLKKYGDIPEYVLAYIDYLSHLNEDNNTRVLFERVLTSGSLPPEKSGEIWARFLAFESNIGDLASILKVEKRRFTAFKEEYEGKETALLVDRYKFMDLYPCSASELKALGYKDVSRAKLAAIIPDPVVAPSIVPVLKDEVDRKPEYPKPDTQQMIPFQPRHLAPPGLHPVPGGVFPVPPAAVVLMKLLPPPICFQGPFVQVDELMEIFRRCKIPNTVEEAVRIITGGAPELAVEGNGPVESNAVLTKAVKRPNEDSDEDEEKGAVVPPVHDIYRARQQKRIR
T2 sequence 3: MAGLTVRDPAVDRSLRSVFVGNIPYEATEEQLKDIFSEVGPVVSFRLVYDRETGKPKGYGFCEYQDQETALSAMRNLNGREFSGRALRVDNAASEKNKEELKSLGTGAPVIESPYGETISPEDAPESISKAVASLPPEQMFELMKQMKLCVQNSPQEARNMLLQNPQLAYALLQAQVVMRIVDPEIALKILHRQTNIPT

CstF-77ΔN;CstF-64RH [2] = target: T3, CstF-77ΔN;CstF-64RH (Homo sapiens;Homo sapiens, UniProt Q12996;P33240 241-717;1-199, del1-240|)
T3 sequence 1: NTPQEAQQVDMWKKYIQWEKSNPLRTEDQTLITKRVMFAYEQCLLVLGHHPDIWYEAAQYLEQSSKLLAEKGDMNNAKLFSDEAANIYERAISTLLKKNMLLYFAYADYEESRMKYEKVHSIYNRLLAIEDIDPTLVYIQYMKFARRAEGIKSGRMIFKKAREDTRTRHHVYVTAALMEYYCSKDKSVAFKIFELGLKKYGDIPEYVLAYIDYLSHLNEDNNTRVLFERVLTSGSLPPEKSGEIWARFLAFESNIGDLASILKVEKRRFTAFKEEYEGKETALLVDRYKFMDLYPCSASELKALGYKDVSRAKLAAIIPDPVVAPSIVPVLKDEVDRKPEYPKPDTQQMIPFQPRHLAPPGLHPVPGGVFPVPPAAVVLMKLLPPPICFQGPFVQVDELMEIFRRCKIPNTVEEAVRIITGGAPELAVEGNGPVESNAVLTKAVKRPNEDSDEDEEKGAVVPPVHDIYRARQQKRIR
T3 sequence 2: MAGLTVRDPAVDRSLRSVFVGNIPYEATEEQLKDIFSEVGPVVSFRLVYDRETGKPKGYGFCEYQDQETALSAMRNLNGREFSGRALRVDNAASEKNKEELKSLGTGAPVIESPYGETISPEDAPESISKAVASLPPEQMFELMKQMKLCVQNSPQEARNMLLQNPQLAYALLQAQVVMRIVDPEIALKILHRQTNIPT

[3] = target: T2, CstF-50;CstF-77ΔN;CstF-64RH; remark: listed apart in the source
CstF-77ΔN;CstF-64RH [4] = target: T3, CstF-77ΔN;CstF-64RH; remark: listed apart in the source
[5] = target: T2, CstF-50;CstF-77ΔN;CstF-64RH; remark: listed apart in the source
CstF-77ΔN;CstF-64RH [6] = target: T3, CstF-77ΔN;CstF-64RH; remark: listed apart in the source
[7] = target: T2, CstF-50;CstF-77ΔN;CstF-64RH; remark: listed apart in the source

Q: For GUGUGUGUGUGUGU (ssRNA) [GU14], which Kd (CstF-64 RRM) is on record?
A: ~2500 nM

Q: And the Kd [1]?
A: ~120 nM

Q: What about the Kd (CstF-77ΔN;CstF-64RH [2]) of the same binder?
A: ~160 nM

Q: Which Kd [3] does the source give for GUGUGUGUGU (ssRNA) [GU10] here?
A: ~500 nM

Q: Does GUGUGUGUGU (ssRNA) [GU10] bind (CstF-77ΔN;CstF-64RH [4])?
A: binds

Q: Does ACACACACACACAC (ssRNA) [AC14] bind [5]?
A: no binding

Q: Which Kd (CstF-77ΔN;CstF-64RH [6]) does the source give for GUGUGACCCUUUUU (ssRNA) [UUUUU-containing RNA] here?
A: ~3700 nM

Q: How did the binding signal [7] turn out when GUGUGUGU (ssRNA) [GU8] was run?
A: ~2.5 fold tighter than GU6
